Assay results published in publication PMC2289016.

Key:
[1] = target: rabbit skeletal muscle actin (rabbit) (UniProt P68135); test: ultrafiltration
[2] = target: rabbit skeletal muscle actin (rabbit) (UniProt P68135); test: actin elongation rate at the barbed end

## human platelet profilin (from UniProt P07737 1-140) (natural protein)
[1]
  Kd: 2.3 µM
[2]
  Kd: 22.5 µM
